Earlier results in article PMC8151241.

Assays:
[1] = target: GAPDH (Chlamydomonas reinhardtii) (UniProt P50362)
[2] = target: PRK (Chlamydomonas reinhardtii) (UniProt P19824)
[3] = target: CP12-GAPDH complex (Chlamydomonas reinhardtii) (UniProt A6Q0K5)

Sequence of UniProt P50362 (P50362 35-374): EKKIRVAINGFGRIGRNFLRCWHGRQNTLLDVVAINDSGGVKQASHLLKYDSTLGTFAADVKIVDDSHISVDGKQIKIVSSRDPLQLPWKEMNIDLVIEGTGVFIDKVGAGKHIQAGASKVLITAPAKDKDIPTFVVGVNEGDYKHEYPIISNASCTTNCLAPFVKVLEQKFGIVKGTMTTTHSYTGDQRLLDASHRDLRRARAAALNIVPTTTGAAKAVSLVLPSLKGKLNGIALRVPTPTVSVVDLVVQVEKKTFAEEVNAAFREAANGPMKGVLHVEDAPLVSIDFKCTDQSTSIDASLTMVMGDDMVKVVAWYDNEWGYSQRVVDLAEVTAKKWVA

CP12 (from UniProt A6Q0K5)
Kd [1]: 0.4 nM
Kd [2]: 1300 nM

PRK (from UniProt P19824)
Kd [3]: 60 nM
